The values that follow come from US9915657B2, “Lateral flow device for diagnosing microbial infections” (THE JOHNS HOPKINS UNIVERSITY, priority 2009, dated 2018).

A word on the Kd: it is the concentration at which binding is half-saturated.

For data set [1] the following is noted: rabbit model; within 24 hours of intravenous injection; cited from earlier work.
A short description of data set [2]: Competition ELISA, relative affinities of GM-binding MAbs. Also noted: species or system Aspergillus fumigatus. How it is done: FIG. 9 is a graph showing the relative affinities of GM-binding MAbs. Measurements were made by competition ELISA using soluble ethanol-precipitated culture filtrate. Percent of maximal binding is shown;
The relative affinities of the GM-binding MAbs were determined by competition ELISA. […] The % of maximal binding is shown in (FIG. 9). […] These values are similar to those reported for other polysaccharide-binding MAbs.
Competition ELISAs were done using each combination of the MAb pairs to confirm that the MAbs were binding to the same epitope and their relative avidities for GM. Biotinylation of the second MAb allowed the use of alkaline phosphatase-conjugated streptavidin for detection and was done by linkage of anion exchange-purified MAbs to sulfo-NHS-LC biotin. Competition among each of the MAb pairs was observed, supporting binding to similar epitopes or the presence of steric hindrance. […] The MAb 838-producing hybridoma manufactures relatively low concentrations of MAb, making use of this cell line difficult.
Background: ELISA stands for enzyme-linked immunosorbent assay.

With Galactomannan [GM], in data set [1], the “GM excreted in the urine” value is listed as 35%.

B1: MAb 838: IgMκ monoclonal antibody to galactofuranose-containing GM; VH SEQ ID NO:7, VL SEQ ID NO:8 (antibody, listed as Mus musculus, V domains shown)
VH: EVQLEESLRLSCATSGFTFSDFYMEWVRQPPGKRLEWIAASRNKANDYTTEYSASVKGRFFVSRDTSQSILYLQMNALRAEDTAIYYCARDVMITTGDWYFDVWGAGTTVTVSS
VL: DILMTQSQKFMSTSVGDRVSVTCKASQNVGTNVAWYQQKPGQSPKALIYSASYQYSGVPDRFTGSGSGTDFTLTISNVQSEDLAEYFCQQFNSYHVRLGDKVGIKT
modifications: (1)..(342) 838.9.4 VH (B4B); (1)..(318) 838.9.4. VL (p6)
For the molecule B1, in data set [2] (calculated from competition ELISA, read-out: dissociation constant (Kd)), the Kd was 100 nM. For the same molecule, the “affinity for GM, higher than the other three MAbs” value in data set [2] (competition ELISA) was “approximately 10 fold”. Further, in data set [2] (competition ELISA between MAb pairs), the “concentration required for competition, lower than for the other MAbs” value is reported as “approximately 10 fold”.
